In data set [1] the test system is maize EPSPS. The data set is described as follows: kcat gly / kgly: enzyme turnover under application conditions (30 μM PEP and S3P, 1 mM glyphosate), phosphate release coupled to MESG. The note with it: for Zm/Os: ratio of kcat gly, maize variant to rice ortholog. It counts as biochemical. As to the method: (§1) A more straight-forward, accurate and meaningful parameter is one in which one rate measurement is performed under presumed in vivo conditions, if known. To establish a set of conditions that mimic those under which the mutated enzyme needs to perform, the concentrations of PEP and S3P were set low (30 uM, subject to the sensitivity of assay conditions) to approach the presumed intracellular concentrations (˜15 uM, the approximate values of KM for both PEP and S3P). Glyphosate is included at 1 mM. The pH is set at 7.0 and ionic strength at 100 mM KCl, also to mimic known in vivo conditions. Ethylene glycol is present at 5% (v/v) to approximate the dielectric constant of intracellular fluid. The parameter is termed “enzyme turnover under application conditions”, which is herein shortened to “kcat gly”. The conventional formatting of the expression “kcat” is not used, to avoid this term being characterized as a standard kinetic constant.
(§2) EPSPS activity was determined by quantifying the phosphate generated from the EPSPS reaction. Release of inorganic phosphate was coupled to its reaction with 2-amino-6-mercapto-7-methylpurine ribonucleoside (MESG), catalyzed by purine nucleoside phosphorylase, according to previously described protocols. To determine the kcat gly, enzyme preparations were normalized to 0.1 mg/ml and four- to six-microliter aliquots of normalized enzyme were added to the wells of a low UV-absorbing 96-well assay plate (Greiner UV-Star). Reactions were started with the addition of 2×147 μl of reaction mixture containing 25 mM Hepes, pH 7.0, 100 mM KCl, 5% ethylene glycol, 30 μM each of PEP and S3P, 0.15 mM MESG, 1.5 U/ml purine nucleoside phosphorylase (Sigma N8264) and 1 mM glyphosate. Absorbance was monitored at 4 sec intervals for 50 sec with a Spectramax plate reader (Molecular Devices). […] Division by the enzyme concentration (0.04 to 0.1 uM, depending on activity) yields “kcat gly” in units of min^−1.
(§3) Approximately 30 substitutions were designed into each library. Assuming an average incorporation rate of six substitutions per variant, the theoretical size of such libraries is ˜7×10^5. Libraries were screened using methods described previously and the enhanced method described in Example 2. The number of colony-forming units plated and screened was in the range of 50 to 100% of the theoretical size. Up to 200 colonies per library were picked for evaluation of the expressed variant. Proteins were purified as described previously in PCT/US2016/054399, incorporated herein by reference. Protein concentration was determined by measuring optical density at 280 nm. The extinction coefficient of native maize EPSPS (0.676 OD/mg/ml) was calculated by vNTI and used to convert OD280 to mg/ml. Kinetic parameters were determined as described in Example 1.
A customized parameter for predicting performance in the treated plant that would be a more accurate representation than kcat/Km*Ki. […] However, kcat/Km*Ki may be inadequate for predicting the reaction velocity under the conditions of the application (plants sprayed with glyphosate) because it may neglect concentrations of substrate and inhibitor, factors that are not intrinsic to the enzyme, but on which the reaction rate depends. Therefore, libraries derived from C1 on in FIG. 2 were evaluated with a single rate measurement designed to take all factors in the rate equation for competitive inhibition into account. […] Glyphosate was included at 1 mM, a concentration attainable in tissues, especially meristems, receiving metabolite flow from treated leaves. The pH (7.0), ionic strength (100 mM KCl) and co-solvent concentration (5% ethylene glycol) were also intended to mimic in vivo conditions. The unit for the parameter is reaction rate (μM·min^−1) per enzyme concentration (μM), or min^−1, describing the enzyme turnover under application conditions, which we abbreviate as “kgly”. […]

Data set [2] concerns the target maize EPSPS. Nature of the data set: substrate saturation kinetic analysis (kcat, KM PEP, KI glyphosate). Format: biochemical. The note with it: for KI/KM: discrimination between glyphosate and PEP. The procedure:
as §2, §3
Combinatorial shuffling, maize native EPSPS—The mutations discovered were used to construct a combinatorial library designed to explore combinations of the desensitizing mutations in novel sequence contexts provided by the newly identified neutral mutations. Note that the amino acid position numbering in this Example 10 refers to the relative position of native maize EPSPS without the N-terminal Met. Therefore, G101A in this Example would be G102A in reference to SEQ ID NO: 1, wherein the maize EPSPS sequence has a Met added at the N-terminal. The diversity used was the same with the addition of G101A, T102 (IALGV) and P106(WA). In all, 43 substitutions at 29 positions were selected. The library was synthesized entirely from oligonucleotides, using the known technique of synthetic shuffling and was termed NatFS (Native, fully synthetic). The vector DNA of the library was transformed into the BL21(DE3) Tuner-AroA knockout strain and the cells were plated onto M9 medium containing either 30 mM glyphosate and 30 μM of the lac operon inducer isopropyl β-D-1-thiogalactopyranoside (IPTG) or 50 mM glyphosate and no IPTG. The 184 colonies that grew on either plate were picked and subjected to a second tier of screening in which EPSPS proteins were purified and activity measured at high (200 μM) and low (50 μM) PEP and S3P, with or without 10 μM glyphosate. Selected variants were subjected to substrate saturation kinetic analysis.

A further data set has as its system rice EPSPS. Nature of the data set: kcat gly: enzyme turnover under application conditions, rice orthologs. It counts as biochemical, rice (Oryza sativa). The note with it: Table 5. As to the method:
as §1, §2
Only variable positions are shown. Naturally occurring differences in the rice sequence from the maize sequence are shown. The mutations designed to create rice orthologs of selected maize variants are shown. Genes designed to encode the rice orthologs were synthesized by a commercial provider and expressed and purified as described above.
Fitness is indicated by the parameter kcat gly, defined in Example 1.

[3] abbreviates: Table 2, 30 μM PEP and S3P, 1 mM glyphosate, pH 7.0.
Where [4] appears, read: Table 2, KM for PEP, read-out: KM.

This is an account of results in patent US20200392528A1, “IMPROVED PLANT EPSP SYNTHASES AND METHODS OF USE” (PIONEER HI-BRED INTERNATIONAL, INC., priority 2017, published 2020).

Like-named read-outs stand apart in the source and are kept apart here.

B1: Zm D2c-A5: maize EPSPS variant with 21 mutations, SEQ ID NO: 59 (protein)
chain: MSKWEEIVLQPIKEISGTVKLPGSKSLSNRILLLAALSEGTTVVDNLLNSEDVGYMLGALRTLGLSVEHDEAAKRAVVVGCGGRFPVEDAKGEVQLFCGNAATAMRPLTAAVTAAGGNATYVLDGVPRMRERPIGDLVVGLKQLGADVDCFLGTDCPPVRVRGIGGLPGGKVKLSGSISSQYLSALLMAAPLALGDVEIEIIDKLISLPYVEMTLRLMERFGVRAEHSDSWDRFYIKGGQKYESPKNAYVEGDASSASYFLAGAAITGGTVTVEGCGTTSLQGDVKFAEVLELMGAKVTWTPTSVTVTGPPREPFGRKHLKAIDVNMNKMPDAAMTLAVVALFADGPTAIRDVGSWRVKETERMVAIRTELTKLGASVEEGPDYCIITPPPKLNVTAIDTYGDHRMAMAFSLAACGEVPVTIRDPGCTRKTFPDYFDVLSTFVKN
modifications: Zea mays
For B1, in the data set on maize EPSPS [1] (D2c variants with substitutions relative to D2-124, no unit in table (kcat gly given in min^−1)), the kcat gly worked out at 156. This molecule displayed a kgly with maize EPSPS [1] (enzyme turnover at 30 μM PEP and S3P, 1 mM glyphosate) of 186 ± 4.7 min⁻¹. Moreover, on maize EPSPS [2] (Ki for glyphosate), the Ki (commonly the equilibrium dissociation constant of an inhibitor or competing ligand from its target) turned out to be 0.839 ± 0.04 mM. In addition, the Km (in general, the concentration of substrate that gives half-maximal velocity) in the data set on maize EPSPS [2] (apparent Km, PEP present at 10 times its Km, read-out: Km S3P) came to 12.6 ± 1.4 µM; in the data set with maize EPSPS [2] (apparent Km, S3P present at 10 times its Km, read-out: Km PEP), 18.1 ± 0.6 µM. Besides, the “kcat/Km*Ki” value in the data set on maize EPSPS [2] (calculated with Km for PEP) is reported as 34350. Besides, in the data set on maize EPSPS [2] (maize EPSPS variants), the turnover number (kcat) (as a rule, the number of substrate molecules converted per active site and unit of time at saturation) is 741 ± 6 min⁻¹.

B2: Os D2-67: rice EPSPS ortholog of Zm D2-67, SEQ ID NO: 17 (protein, listed as Oryza sativa)
chain: MRKWEEIVLQPIREISGAVQLPGSKSLSNRILLLSALSEGTTVVDNLLNSEDVHYMLEALKALGLSVEHDKVAKRAVVVGCGGRFPVEKDAKGEVQLFCGNAATAMRPLTAAVTAAGGNATYVLDGVPRMRERPIGDLVVGLKQLGADVDCFLGTECPPVRVKGIGGLPGGKVKLSGSISSQYLSALLMAAPLALGDVEIEIIDKLISLPYVEMTLRLMERFGVKAEHSDSWDRFYIKGGQKYESPGNAYVEGDASSASYFLAGAAITGGTVTVQGCGTTSLQGDVKFAEVLEMMGAKVTWTDTSVTVTGPPREPYGKKHLKAVDVNMNKMPDAAMTLAVVALFADGPTAIRDVASWRVKETERMVAIRTELTKLGASVEEGPDYCIITPPPKLNITAIDTYGDHRMAMAFSLAACADVPVTIRDPGCTRKTFPNYFDVLSTFVRN
B2: in the data set on rice EPSPS, the kcat gly was found to be 102 min⁻¹.

B3: Os F3: rice EPSPS ortholog of Zm F3, SEQ ID NO: 18 (protein, listed as Oryza sativa)
chain: MAKAEEIVLQPIREISGAVQLPGSKSLSNRILLLSALSEGTTVVDNLLNSEDVHYMLEALKALGLSVEADKVAKRAVVVGCGGKFPVEKDAKEEVQLFCGNAATAMRPLTAAVTAAGGNATYVLDGVPRMRERPIGDLVVGLKQLGADVDCFLGTECPPVRVKGIGGLPGGKVKLSGSISSQYLSALLMAAPLALGDVEIEIIDKLISIPYVEMTLRLMERFGVKAEHSDSWDRFYIKGGQKYKSPGNAYVEGDASSASYFLAGAAITGGTVTVQGCGTTSLQGDVKFAEVLEMMGAKVTWTDTSVTVTGPPREPYGKKHLKAVDVNMNKMPDVAMTLAVVALFADGPTAIRDVASWRVKESERMVAIRTELTKLGASVEEGPDYCIITPPEKLNITAIDTYGDHRMAMAFSLAACADVPVTIRDPGCTRKTFPNYFDVLSTFVRN
For B3, in the data set on rice EPSPS, the kcat gly came out at 39.0 min⁻¹.

B4: Zm F3: maize EPSPS variant, SEQ ID NO: 11 (protein)
chain: MAGAEEIVLQPIKEISGTVKLPGSKSLSNRILLLAALSEGTTVVDNLLNSEDVHYMLGALRTLGLSVEADKAAKRAVVVGCGGKFPVEDAKEEVQLFCGNAATAMRPLTAAVTAAGGNATYVLDGVPRMRERPIGDLVVGLKQLGADVDCFLGTDCPPVRVNGIGGLPGGKVKLSGSISSQYLSALLMAAPLALGDVEIEIIDKLISIPYVEMTLRLMERFGVKAEHSDSWDRFYIKGGQKYKSPKNAYVEGDASSASYFLAGAAITGGTVTVEGCGTTSLQGDVKFAEVLEMMGAKVTWTETSVTVTGPPREPFGRKHLKAIDVNMNKMPDVAMTLAVVALFADGPTAIRDVASWRVKESERMVAIRTELTKLGASVEEGPDYCIITPPEKLNVTAIDTYGDHRMAMAFSLAACAEVPVTIRDPGCTRKTFPDYFDVLSTFVKN
modifications: Zea mays
For the molecule B4, the kcat gly in the data set on maize EPSPS [1] (setting [3]) came out at 39.3 min⁻¹. Also, in the data set with maize EPSPS [1] (Table 5, maize variants), the kcat gly is 45.2 min⁻¹. For the same molecule, in the data set with maize EPSPS [1] (Table 5), the Zm/Os was 1.16. For the same molecule, in the data set on maize EPSPS [2] (Table 2), the kcat was 472 min⁻¹, the “kcat/KM*KI” value amounted to 7280 and the KI/KM amounted to 15.4. The Km in the data set with maize EPSPS [2] (setting [4]) came out at 71.5 µM. The inhibition constant (Ki) at maize EPSPS [2] (Table 2, inhibitor glyphosate) amounted to 1.1 mM.

B5: Zm F3-88: maize EPSPS variant, SEQ ID NO: 12 (protein)
chain: MAGAEEIVLQPIKEISGTVKLPGSKSLSNRILLLAALSEGTTVVDNLLNSEDVGYMLGALRTLGLSVEADKAAKRAVVVGCGGKFPVEDAKEEVQLFCGNAATAMRPLTAAVTAAGGNATYVLDGVPRMRERPIGDLVVGLKQLGADVDCFLGTDCPPVRVNGIGGLPGGKVKLSGSISSQYLSALLMAAPLALGDVEIEIIDKLISIPYVEMTLVLMERFGVKAYHSDSWDRFYIKGGQKYKSPKNAYVEGDASSASYFLAGAAITGGTVTVEGCGTTSLQGDVKFAEVLEMMGAAVTWTETSVTVTGPPREPFGRKHLKAIDVNMNKMPDAAMTLAVVALFADGPTAIRDVASWRVKESERMVAIRTELTKLGASVEEGPDYCIITPPEKLNVTAIDTYGDHRMAMAFSLAACAEVPVTIRDPGCTAKTFPDYFDVLSTFVKN
modifications: Zea mays
As for B5, the kcat gly in the data set with maize EPSPS [1] (setting [3]) amounted to 85.7 min⁻¹. Moreover, the kcat gly with maize EPSPS [1] (Table 5, maize variants) was found to be 98 min⁻¹. In addition, the Zm/Os in the data set on maize EPSPS [1] (Table 5) was 1.57. Moreover, in the data set with maize EPSPS [2] (Table 2), the kcat was found to be 693 min⁻¹, the “kcat/KM*KI” value is reported as 29600 and the KI/KM came out at 44.0. The Km with maize EPSPS [2] (setting [4]) is 55.6 µM. Further, the inhibitory constant (Ki) on maize EPSPS [2] (Table 2, inhibitor glyphosate) was 2.44 mM.

B6: Os F3-88: rice EPSPS ortholog of Zm F3-88, SEQ ID NO: 19 (protein, listed as Oryza sativa)
chain: MAKAEEIVLQPIREISGAVQLPGSKSLSNRILLLSALSEGTTVVDNLLNSEDVGYMLEALKALGLSVEADKVAKRAVVVGCGGKFPVEKDAKEEVQLFCGNAATAMRPLTAAVTAAGGNATYVLDGVPRMRERPIGDLVVGLKQLGADVDCFLGTECPPVRVKGIGGLPGGKVKLSGSISSQYLSALLMAAPLALGDVEIEIIDKLISIPYVEMTLVLMERFGVKAYHSDSWDRFYIKGGQKYKSPGNAYVEGDASSASYFLAGAAITGGTVTVQGCGTTSLQGDVKFAEVLEMMGAAVTWTDTSVTVTGPPREPYGKKHLKAVDVNMNKMPDAAMTLAVVALFADGPTAIRDVASWRVKESERMVAIRTELTKLGASVEEGPDYCIITPPEKLNITAIDTYGDHRMAMAFSLAACADVPVTIRDPGCTAKTFPNYFDVLSTFVRN
With B6, the kcat gly in the data set with rice EPSPS amounted to 62.3 min⁻¹.
